B1: ZC3H15 (parent)
chain: RKADFKAGKALVISGREVFEFRPE

Variants of: B1
Assay: protein stability index of a GFP-peptide fusion (GPS, HEK-293T) (PSI 1-6); higher = more stable
Conditions: c terminus: a fixed tail appended
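Also: lentivirally expressed fusions sorted by FACS into six bins by GFP to DsRed ratio, PSI derived from sequencing read proportions per bin multiplied by bin number.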

Protein stability index of substitutions, site by site:
K6: H 2.6; Q 2.44
E24: R 2.43; N 2.84; C 2.22; K 2.31; Y 2.17; Q 2.84; S 2.78; V 2; P 2.44; T 2.52; I 1.94
F5: C 3.55; D 3.77; S 3.77; T 3.59; M 2.85; A 3.91; P 3.25; G 4.05; Q 3.8; V 3.6; H 3.77
K9: L 1.99; T 3.04; F 1.7; D 3.18; E 3.11; G 2.28; C 2.33; Y 1.05; M 2.31; V 2.48; S 3.16; A 3.02; P 2.78; W 1.87
G15: D 3.38; Q 2.92; Y 1.85; R 2.73; S 3.18; M 2.04; E 3.65; T 2.93; F 2.27; N 3.4; P 3.37; I 2.37; A 2.64; V 2.06
A3: C 2.09; G 3.13; W 2.51; F 2.23; K 3.12; R 2.85
S14: C 1.21; Y 2.39; Q 2.81; I 1.93; M 2.49; V 1.43; A 2.86; P 3.44; W 1.87; L 1.57; D 3.82; R 2.56; T 2.98
D4: S 2.55; L 1.91; E 2.64; K 2.53; F 1.98; V 2.2; Q 2.73; T 1.98; Y 2.12; N 2.03; P 2.36; R 2.55
E20: S 2.1; P 2.62; Q 2.74; L 2.51; M 2.27; R 3.14; G 3.1; K 2.68; C 2.68; H 2.13; T 2.73; N 2.81
L11: W 2.55; N 4.1; F 2.65; G 3.46; C 3.09; R 2.95; T 3.76
F21: Y 3.21; W 2.85; V 3.5; E 4.46; R 3.48; D 4.04; G 4.2
R1: Y 2.81; T 3.22; H 3.44; C 1.91; P 3.19; Q 2.99; D 3.7; M 2.71; F 2.01
G8: E 2.99; N 3.3; C 2.14; W 1.79; H 2.66; T 2.78; P 2.65; F 1.93; V 2.16; M 2.59; Q 2.85; R 2.52
F19: T 3.7; D 4.68; M 3.43; K 3.47; W 2.43; C 3.76; S 3.51; A 4.01; H 4.13
V18: H 3.22; K 3.56; N 3.61; G 3.37; M 2.8; A 3.33; W 2.86; I 2.95; S 3.34; C 2.95; T 3.32; L 2.72; F 2.68; P 3.05; Y 2.74
A7: E 2.86; F 2.21; N 3.11; W 1.71; M 2.46; P 3.2; Y 2.18; D 3.12; I 2.66; S 3.26; H 2.75; K 3.67; L 2.08
